This data set in a line: soluble on expression in E. coli; label from the status in PepcDB or PDB records.
Turning to “MEIKTTTTLHRVVEETTKPLGATLVVETDISRKDVNGLARGHLVDGIPLCTPSFYADIAMQVGQYSMQRLRAGHPGAGAIDGLVDVSDMVVDKALVPHGKGPQLLRTTLTMEWPPKAAATTRSAKVKFATYFADGKLDTEHASCTVRFTSDAQLKSLRRSVSEYKTHIRQLHDGHAKGQFMRYNRKTGYKLMSSMARFNPDYMLLDYLVLNEAENEAASGVDFSLGSSEGTFAAHPAHVDAITQVAGFAMNANDNVDIEKQVYVNHGWDSFQIYQPLDNSKSYQVYTKMGQAKENDLVHGDVVVLDGEQIVAFFRGLTLRSVPRGALRVVLQTTVKKADRQLGFKTMPSPPPPTTTM”, the “soluble on expression in E. coli” value is “soluble”.

For the sequence “MEILNQFSQFSPNMEAQGASSIPQPSQDAHEKARQQAENQETAKNGMISQILDQAAMQRLSNLAVAKPEKAQMVEAALINMARRGQLSGKMTDDGLKALMERVSAQTQKATSVKFDRRRNELDSDEELDL”, the “soluble on expression in E. coli” value is “not soluble”.

On to “MEIRLFSGSAHPDLARRVAEALGVPLGKALVDRFPDGEVRVRLLESVRGEDVYLIQPTCPPVNDHLMELLLLADAARRSSAGRINAVIPYFGYARQDKQTEGREPISARLVAGLLERVGVERVIAIDLHAPQIQGFFDIPVDHLSAVRLFARYLREKGYVENAVVVSPDAGRAEEARRLAERLGLPLAMLAKRRLGPRETSVTYVIGDVEGKRPILVDDIVSTGGTIRRGVEALLQAGALPEVVVMATHAVLVGGAKENLAHPAVREVVFTDTIPLKDGGYTVLSTAELLAQAIRHVHTNQSVSALI”, for which the “soluble on expression in E. coli” value is “soluble”.

On to “MEIRYAKEEEIESIKDIWSYCFNDTESFMKYYFNDKYKSENTVVALDEGKIISSLQLNQYKLLLNSKVYNTSYVVGVSTLPEGRGAGYMNKVMKFTLNELYKKGQLVSILMPIDYRLYRRFGYEHCYDQIEYTINTDDLKNFKSSGKMIKSNLSQIDDLIQIDRTFLNEVNGNVLKDEHYYENLFKEIQSEDGFLYIHEGNEKDGYIVYFLQEDKMFVRELFYKNIDALKSMLKFIYNHNTQCKIVTISTPTIDKIRFILDNPKDSDIKIKPFMMGRVINVKKFIEDIDIENDINSSFNLLIEDKFIDENNGLFKISIQNKKVSVEQLDKKGAEKPQEDFDIKLDINTLTQLSFSYIDVNEAIFLNDIKDVSEETLETLNCIFSKKNNYINEYI”, for which the “soluble on expression in E. coli” value is reported as “not soluble”.

Take “MEITLNSGFKMPIIGLGVWRMEKEELRDLIIDAIKIGYRHLDCAANYKNEAEVGEALTEAFTTGLVKREDLFITTKLWSSDHGHVIEACKDSLKKLQLDYLDLFLVHIPIATKHTGIGTTDSALGDDGVLDIDTTISLETTWHDMEKLVSMGLVRSIGISNYDVFLTRDCLAYSKIKPAVNQIETHPYFQRDSLVKFCQKHGICVTAHTPLGGATANAEWFGTVSCLDDPVLKDVAEKYKQTVAQIVLRWGIQRNTVVIPKTSKPERLEENFQVFDFQLSKEDMEVIKSMERNYRTHQTAKFWGIELYA”: the “soluble on expression in E. coli” value was “soluble”.

For “MEKELDLSQYSVRTDLAVEAKDIALENQPKPNNQSEIKGVIVKEKEEQGVKISMVEITEEGAEAIGKKKGRYVTLESVGIREQDTEKQEEAMEEVFAKELNFFIKSLNIPDDASCLVVGLGNLSVTPDALGPKAVDNLLITRHLFELQPESVQDGFRPVSAIVPGVMGMTGIETSDIIFGVVKKVNPDFIIAIDALAARSIERVNATIQISDSGIHPGSGVGNKRKEISYETLGIPVIAIGIPTVVDAVSITSDTIDFILKHFGREMKEQGKPSKSLLPSGMTFGEKKKLTEDDLPNEEQRQTYLGMIGTLPDEEKRRLIHEVLAPLGHNLMVTPKEVDMFIEDMANVVAGGLNAALHHEVDQENFGAYTH”, the “soluble on expression in E. coli” value is given as “soluble”.

As to “MEKELKALTKRLQQYNEQLLLIARRARERNEEPDFFGDVKPMAEEVQAVAERWKDAASRWVRHARPKYVHERQIEAAADHMAKLCVEAFYPSVPERRIKQYSQAVAYTLALVKERLDDTSEAGKERL”, the “soluble on expression in E. coli” value is listed as “not soluble”.

Regarding “MEKELVFAGFGGQGVLTLGLIVAESALELGKQVTWMPAYGPTMRGGKAYSVVKFSDESIGGPDMEEIDVLVAMNKPSLDYINLVKEGGTVVINTSAIDENVTLREDISVVKINCQELAQKVNNPK”, the “soluble on expression in E. coli” value was “not soluble”.

For the sequence “MEKETKEKIEKTVIEILSESDMKEITEFKVRKLASEKLAIDLSEKSHKAFVRSVVEKFLDEERAREYENSQVNKEEEDGDKDCGKGNKEFDDDGDLIICRLSDKRRVTIQEFKGKSLVSIREYYKKDGKELPTSKGISLTDEQWSTFKKNMPAIENAVKKMESRV”, the “soluble on expression in E. coli” value is “soluble”.

Regarding “MEKFDVIIIGAGPAGLFAAYELVERSNMKVLIIDEGGDVDQRVCPMDQLGYCIGCKPCHIMSGVGGAGGLSDGTVNLRPDIGGDLTELTNDENYSWQLVWEVDQILLKHGAPRNLYKGDPDQIRYWERKAAQAGVKFIPIIQRHIGSDNTPRVIKSIKQYLESKGVKFLLWTKALEFNKGWVKVRRGKDVFTIEGKYIIVAPGRGGAEWFHEIAQKIGLKARHGPIDVGVRVEVPAIIMEPITSINHDPKFHIYTDTYDDFVRTFCTNPYGFVVEERYDGYVGVNGHSMRNKKSNNTNFAFLTRIELTEPVEDTTAYGRSIAQLATTIGGGRPILQRLGDLRRGRRSTWSRIRKSNVEPTLKHVTPGDIAMALPHRVVTNIIEGLEKLDKVIPGVASDHTLLYAPEIKYYAMKVEVNELLETSIENVFAAGDGAGLSRDIVNAAATGIMAARGILVKEGLYNLKDFKKPGNWKEKIESLEPEELEHHHHHH”, the “soluble on expression in E. coli” value was “soluble”.

Take “MEKFIDENVAFGRMPYEDEIDELVEKFDAFVVLVEDFELVYDIEELKKKVDVLHSPIPDFTAPSLSQLYKIVKWIEEKVKEGKKVYIHCYGGSGRSGTVAVAWLMYSQGLSLREGLRRVRLLKPSAVETEDQLEVLREFERFLDTR”: the “soluble on expression in E. coli” value is listed as “soluble”.

In the case of “MEKHDICPSISEYSYHEILGFYINPVENHLASKNMLIDLDERSVEGLLIFIAECNLGIENRVMEHMNKGIRKCKDHRFT”, the “soluble on expression in E. coli” value is “not soluble”.

Turning to “MEKIRQPTHAGSWYTDNPTKLSSDLEEWLNATGLTKSPDVRGVIAPHAGYSYSGRAAAYAFANIDPTNISRIFLLGPSHHFYTPKCALSTATVYKTPIGNLPVDVEMIKEIRAMGKFGMMDLRVDEAEHSMEMHLPYLAKVFEGNNVKVVPILVGAVSPENEAMYGELLAKYVDDPKNFFSVSSDFCHWGSRFNYMHYDNTHGAIHKSIEALDKKGMDIIETGDPDAFKKYLLEFENTICGRHPISIFLHMLKHSSSKIKINFLRYEQSSQCQTMRDSSVSYASAAAKLET”, the “soluble on expression in E. coli” value is “not soluble”.

For “MEKKKVTIPQVCHGHSRPVVDLFYSPITPDGFFLISASKDSHPMLRNGETGDWIGTFEGHKGAVWSSCLDNNALRAASASADFSAKLWDALTGDVLHSFEHKHIVRACAFSEDTKSLLTGGFEKILRVFDMNRLDAPPTEVDKSPGSIRTLTWLHSDQTILSSCTDIGGVRLWDVRSGKIVQTLETKSPVTSAEVSQDGRYITTADGSTVKFWDANHFGLVKSYDMPCNIESASLEPKSGEKFVAGGEDMWVRVFDFYTGEEIGCNKGHHGPVHCVRFTPTGLSYASGSEDGTIRIWQTTPANPEENETSSRRVKHSVDEVSKKIEGFHINKEGKTAEKPSDT”, the “soluble on expression in E. coli” value is on record as “soluble”.

As to “MEKLTMQEEEVMIYIWELESCYVKDIVAKFEQPTPPYTTVASIVKNLERKKYVKAQRVGNTYLYTPSIKESEYKRSFMSGVVRNYFENSYKEMVSFFAKDQKISTNDLKEIIDMIEKGQEK”, the “soluble on expression in E. coli” value is recorded as “not soluble”.

Consider “MEKMKNLDGKVALVTGASRGIGRAIAMRLANDGALVAIHYGRNKQAADETIREIESNEGKAFLIEADLNSIDGVKKLVEQLKNELQIRVGTSEIDILVNNAGIGTQGTIENTTEEIFDEIMAVNIKAPFFLIQQTLPLLRAEGRVINISSAEVRLGFTGSIAYGLSKGALNTMTLPLAKHLGERGITVNTIMPGYTKTDINAKLLDDPEIRNFAANSSVFGRIGQVEDIADAVAFLAASDSRWVTGQIIDVSGGFCL”, for which the “soluble on expression in E. coli” value is recorded as “not soluble”.
